Results from patent US20050042227A1.

How the values were obtained:
Test in all cases: cell-based or functional assay
[1] = target: mannose-6-phosphate receptor on GM244 human fibroblasts (human) (UniProt O00264)
[2] = target: LRP1 receptors on GM244 human Pompe fibroblasts (human) (UniProt Q07954)
LRP = target: LRP

Chain of LRP1 receptors on GM244 human Pompe fibroblasts (human) (Q07954 20-4544): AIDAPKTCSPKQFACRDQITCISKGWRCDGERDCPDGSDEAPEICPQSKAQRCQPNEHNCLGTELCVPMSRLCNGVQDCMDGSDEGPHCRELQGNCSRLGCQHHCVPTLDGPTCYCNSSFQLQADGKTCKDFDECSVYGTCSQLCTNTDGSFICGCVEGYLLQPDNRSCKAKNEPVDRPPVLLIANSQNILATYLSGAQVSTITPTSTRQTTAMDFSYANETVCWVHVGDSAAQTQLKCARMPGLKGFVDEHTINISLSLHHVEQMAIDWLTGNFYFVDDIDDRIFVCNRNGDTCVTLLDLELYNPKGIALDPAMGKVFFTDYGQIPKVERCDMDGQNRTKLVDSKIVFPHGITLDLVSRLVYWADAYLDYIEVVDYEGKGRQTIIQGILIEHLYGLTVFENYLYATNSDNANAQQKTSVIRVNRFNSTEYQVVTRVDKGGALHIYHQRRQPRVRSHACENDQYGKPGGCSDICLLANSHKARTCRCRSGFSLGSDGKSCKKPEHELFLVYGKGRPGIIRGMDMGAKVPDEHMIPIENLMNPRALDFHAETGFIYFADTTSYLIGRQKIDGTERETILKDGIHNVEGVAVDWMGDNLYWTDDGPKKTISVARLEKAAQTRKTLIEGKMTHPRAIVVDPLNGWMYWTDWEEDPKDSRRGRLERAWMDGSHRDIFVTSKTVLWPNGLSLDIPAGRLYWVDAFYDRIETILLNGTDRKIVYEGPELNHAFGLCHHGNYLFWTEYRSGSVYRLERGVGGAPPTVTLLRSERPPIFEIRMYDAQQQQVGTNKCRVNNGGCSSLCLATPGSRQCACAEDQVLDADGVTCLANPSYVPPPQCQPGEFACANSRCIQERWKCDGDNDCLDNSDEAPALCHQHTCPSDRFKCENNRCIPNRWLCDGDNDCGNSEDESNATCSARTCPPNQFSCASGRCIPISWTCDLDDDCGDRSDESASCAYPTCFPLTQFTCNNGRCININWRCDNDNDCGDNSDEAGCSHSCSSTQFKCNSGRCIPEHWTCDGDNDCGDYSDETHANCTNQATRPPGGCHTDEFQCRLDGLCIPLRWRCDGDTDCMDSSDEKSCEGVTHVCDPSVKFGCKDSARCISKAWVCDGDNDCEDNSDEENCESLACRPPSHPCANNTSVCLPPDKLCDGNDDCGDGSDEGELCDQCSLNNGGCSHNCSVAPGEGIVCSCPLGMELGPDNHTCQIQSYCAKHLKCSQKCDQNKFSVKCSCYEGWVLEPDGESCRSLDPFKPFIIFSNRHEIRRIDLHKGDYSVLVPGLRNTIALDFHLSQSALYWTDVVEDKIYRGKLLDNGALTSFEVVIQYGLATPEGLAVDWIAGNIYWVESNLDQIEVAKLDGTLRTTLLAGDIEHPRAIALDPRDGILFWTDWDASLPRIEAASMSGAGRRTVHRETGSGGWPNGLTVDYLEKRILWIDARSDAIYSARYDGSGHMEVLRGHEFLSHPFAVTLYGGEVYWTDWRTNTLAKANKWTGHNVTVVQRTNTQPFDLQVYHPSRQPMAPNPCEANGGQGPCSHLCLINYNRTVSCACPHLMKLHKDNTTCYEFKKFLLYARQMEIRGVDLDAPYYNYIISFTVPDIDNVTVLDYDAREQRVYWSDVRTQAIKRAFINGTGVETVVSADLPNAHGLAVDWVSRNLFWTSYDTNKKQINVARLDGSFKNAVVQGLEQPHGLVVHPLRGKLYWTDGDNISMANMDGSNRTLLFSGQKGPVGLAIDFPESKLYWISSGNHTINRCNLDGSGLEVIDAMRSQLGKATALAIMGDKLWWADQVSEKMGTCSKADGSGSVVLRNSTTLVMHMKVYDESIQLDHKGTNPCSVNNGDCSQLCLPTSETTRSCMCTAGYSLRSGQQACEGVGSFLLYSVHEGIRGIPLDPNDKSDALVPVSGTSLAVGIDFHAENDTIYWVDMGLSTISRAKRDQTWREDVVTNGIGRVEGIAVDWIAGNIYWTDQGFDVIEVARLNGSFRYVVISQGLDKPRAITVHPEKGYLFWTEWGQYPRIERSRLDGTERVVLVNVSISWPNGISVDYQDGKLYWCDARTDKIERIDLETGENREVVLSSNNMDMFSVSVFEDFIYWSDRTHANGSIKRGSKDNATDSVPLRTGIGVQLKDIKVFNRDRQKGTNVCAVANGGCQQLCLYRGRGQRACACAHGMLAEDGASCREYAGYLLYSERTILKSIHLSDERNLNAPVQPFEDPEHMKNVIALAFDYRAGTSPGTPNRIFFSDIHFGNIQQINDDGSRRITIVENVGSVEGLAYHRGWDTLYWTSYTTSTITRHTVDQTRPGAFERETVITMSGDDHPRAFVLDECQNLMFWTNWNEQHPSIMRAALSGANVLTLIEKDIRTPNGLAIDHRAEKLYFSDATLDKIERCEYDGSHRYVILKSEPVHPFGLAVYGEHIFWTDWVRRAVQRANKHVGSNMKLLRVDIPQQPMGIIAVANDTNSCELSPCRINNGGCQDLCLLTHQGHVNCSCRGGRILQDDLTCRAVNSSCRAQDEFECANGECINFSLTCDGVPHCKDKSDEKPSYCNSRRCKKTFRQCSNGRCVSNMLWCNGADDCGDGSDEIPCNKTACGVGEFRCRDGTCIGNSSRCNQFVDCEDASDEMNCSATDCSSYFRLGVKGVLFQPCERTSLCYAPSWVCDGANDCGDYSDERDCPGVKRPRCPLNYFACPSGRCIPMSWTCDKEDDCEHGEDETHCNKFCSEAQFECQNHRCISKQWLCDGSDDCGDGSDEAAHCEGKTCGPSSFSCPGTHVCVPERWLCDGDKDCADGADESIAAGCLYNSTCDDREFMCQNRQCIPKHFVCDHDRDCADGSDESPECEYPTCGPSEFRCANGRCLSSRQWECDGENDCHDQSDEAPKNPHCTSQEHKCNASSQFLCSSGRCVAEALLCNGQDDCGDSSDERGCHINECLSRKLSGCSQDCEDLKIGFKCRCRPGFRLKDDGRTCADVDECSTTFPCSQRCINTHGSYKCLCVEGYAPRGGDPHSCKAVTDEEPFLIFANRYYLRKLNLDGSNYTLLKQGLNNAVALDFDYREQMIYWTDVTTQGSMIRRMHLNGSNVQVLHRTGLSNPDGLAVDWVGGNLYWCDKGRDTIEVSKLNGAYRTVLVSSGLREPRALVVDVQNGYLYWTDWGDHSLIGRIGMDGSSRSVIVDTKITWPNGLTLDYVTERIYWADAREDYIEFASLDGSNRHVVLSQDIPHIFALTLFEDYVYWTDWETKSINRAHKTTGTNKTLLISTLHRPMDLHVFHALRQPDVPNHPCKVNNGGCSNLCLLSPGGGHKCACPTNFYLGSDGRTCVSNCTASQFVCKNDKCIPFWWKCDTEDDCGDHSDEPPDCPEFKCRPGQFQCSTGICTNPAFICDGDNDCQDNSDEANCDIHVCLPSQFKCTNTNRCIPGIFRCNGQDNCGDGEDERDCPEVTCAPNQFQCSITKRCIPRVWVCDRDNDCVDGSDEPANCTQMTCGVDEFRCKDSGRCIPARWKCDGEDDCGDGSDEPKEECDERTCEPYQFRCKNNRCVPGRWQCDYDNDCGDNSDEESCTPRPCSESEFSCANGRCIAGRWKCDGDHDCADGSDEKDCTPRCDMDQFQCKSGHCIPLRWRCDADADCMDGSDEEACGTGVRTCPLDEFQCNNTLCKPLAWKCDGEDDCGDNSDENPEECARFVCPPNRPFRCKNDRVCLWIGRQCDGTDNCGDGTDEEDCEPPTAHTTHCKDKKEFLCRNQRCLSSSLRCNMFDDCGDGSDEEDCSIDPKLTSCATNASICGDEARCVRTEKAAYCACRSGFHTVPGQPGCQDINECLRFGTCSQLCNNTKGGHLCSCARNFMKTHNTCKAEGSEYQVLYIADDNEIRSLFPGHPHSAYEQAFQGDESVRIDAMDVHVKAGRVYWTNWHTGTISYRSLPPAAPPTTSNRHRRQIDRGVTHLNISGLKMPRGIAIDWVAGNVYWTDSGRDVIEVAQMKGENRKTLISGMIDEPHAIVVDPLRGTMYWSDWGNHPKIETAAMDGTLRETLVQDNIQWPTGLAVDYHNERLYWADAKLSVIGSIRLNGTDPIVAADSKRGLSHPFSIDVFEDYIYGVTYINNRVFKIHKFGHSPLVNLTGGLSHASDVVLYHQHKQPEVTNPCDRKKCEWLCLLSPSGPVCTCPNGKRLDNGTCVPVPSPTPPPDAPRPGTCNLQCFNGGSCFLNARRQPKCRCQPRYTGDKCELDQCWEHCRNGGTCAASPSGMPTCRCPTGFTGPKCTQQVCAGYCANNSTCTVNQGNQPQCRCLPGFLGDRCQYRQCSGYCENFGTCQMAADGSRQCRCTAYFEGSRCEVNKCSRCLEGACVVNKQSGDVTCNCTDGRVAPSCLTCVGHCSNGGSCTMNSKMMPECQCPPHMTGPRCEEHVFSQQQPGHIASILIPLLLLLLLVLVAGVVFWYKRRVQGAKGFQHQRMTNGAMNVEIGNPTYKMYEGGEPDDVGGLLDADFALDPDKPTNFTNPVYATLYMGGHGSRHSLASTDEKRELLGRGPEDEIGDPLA
Chain of mannose-6-phosphate receptor on GM244 human fibroblasts (human) (O00264 whole entry): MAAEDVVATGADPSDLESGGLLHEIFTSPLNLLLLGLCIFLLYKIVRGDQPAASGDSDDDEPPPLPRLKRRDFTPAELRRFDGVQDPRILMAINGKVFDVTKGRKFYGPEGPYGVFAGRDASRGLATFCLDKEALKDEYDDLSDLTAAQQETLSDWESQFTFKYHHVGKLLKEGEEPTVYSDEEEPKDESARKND

In the case of “RAP-GAA fusion (human RAP fused N-terminally to human alpha-glucosidase)”, the percent of RAP-GAA uptake into GM244 fibroblasts inhibited by mannose 6-phosphate [1] is reported as 20%, the Kuptake, uptake into GM244 fibroblasts measured by GAA enzyme activity [2] is reported as 19 nM and the percent of RAP-GAA uptake into GM244 fibroblasts inhibited by free RAP [2] is reported as 90%. The uptake into GM244 fibroblasts relative to recombinant GAA (Vmax ratio) [2] was 60 fold, the uptake into GM244 fibroblasts relative to recombinant GAA at 10 nM [2] was 25 fold and the Kuptake ratio (fusion/enzyme), RAP-GAA against rhGAA, fibroblast (ratio (fusion/enzyme)) (LRP) was 25. The Uptake ratio (fusion/enzyme), RAP-GAA against rhGAA, C2C12 myoblast, 5 nM (ratio (fusion/enzyme)) (LRP) was 18, the Uptake ratio (fusion/enzyme), RAP-GAA against rhGAA, C6 glioma, 5 nM (ratio (fusion/enzyme)) (LRP) was 8 and the Uptake ratio (fusion/enzyme), RAP-GAA against rhGAA, fibroblast, 5 nM (ratio (fusion/enzyme)) (LRP) was 9. The Uptake ratio (fusion/enzyme), RAP-GAA against rhGAA, fibroblast, 50 nM (ratio (fusion/enzyme)) (LRP) was 37 and the Uptake ratio (fusion/enzyme), RAP-GAA against rhGAA, fibroblast, saturation (ratio (fusion/enzyme)) (LRP) was 70.
